In the supplement of paper PMC10567573:

B1: LPCAT4 (parent)
chain: HDPLYGKLFSTYLRPPHTSRGTSQ

Variants of: B1
Experiment: protein stability index of a GFP-peptide fusion (GPS, HEK-293T) (PSI 1-6); higher = more stable
Settings: c terminus: a fixed tail appended
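Also: lentivirally expressed fusions sorted by FACS into six bins by GFP to DsRed ratio, PSI derived from sequencing read proportions per bin multiplied by bin number.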

Variant | protein stability index
HDPLYGKLFSTYIRPPHTSRGTSQ | 3.06
HDPLYGKLFSTYKRPPHTSRGTSQ | 3.44
HDPLYGKLFSTYMRPPHTSRGTSQ | 3.1
HDPLYGKLFSTYNRPPHTSRGTSQ | 4.16
HDPLYGKLFSTYPRPPHTSRGTSQ | 3.21
HDPLYGKLFSTYQRPPHTSRGTSQ | 4.06
HDPLYGKLFSTYRRPPHTSRGTSQ | 3.39
HDPLYGKLFSTYSRPPHTSRGTSQ | 4.04
HDPLYGKLFSTYTRPPHTSRGTSQ | 3.72
HDPLYGKLFSTYVRPPHTSRGTSQ | 3.72
HDPLYGKLFSTYWRPPHTSRGTSQ | 2.77
HDPLYGKLFSTYYRPPHTSRGTSQ | 2.78
HDPLYGKLFSTYLAPPHTSRGTSQ | 3.08
HDPLYGKLFSTYLCPPHTSRGTSQ | 2.78
HDPLYGKLFSTYLDPPHTSRGTSQ | 3.9
HDPLYGKLFSTYLEPPHTSRGTSQ | 3.4
HDPLYGKLFSTYLFPPHTSRGTSQ | 2.81
HDPLYGKLFSTYLGPPHTSRGTSQ | 3.73
HDPLYGKLFSTYLHPPHTSRGTSQ | 3.28
HDPLYGKLFSTYLIPPHTSRGTSQ | 3.17
HDPLYGKLFSTYLKPPHTSRGTSQ | 2.66
HDPLYGKLFSTYLLPPHTSRGTSQ | 2.32
HDPLYGKLFSTYLMPPHTSRGTSQ | 2.79
HDPLYGKLFSTYLNPPHTSRGTSQ | 3.04

Variant | protein stability index
HDPLYGKLFSTYLPPPHTSRGTSQ | 3.71
HDPLYGKLFSTYLQPPHTSRGTSQ | 2.83
HDPLYGKLFSTYLSPPHTSRGTSQ | 2.69
HDPLYGKLFSTYLTPPHTSRGTSQ | 3.09
HDPLYGKLFSTYLVPPHTSRGTSQ | 3.17
HDPLYGKLFSTYLWPPHTSRGTSQ | 2.52
HDPLYGKLFSTYLYPPHTSRGTSQ | 2.81
HDPLYGKLFSTYLRAPHTSRGTSQ | 2.7
HDPLYGKLFSTYLRCPHTSRGTSQ | 2.11
HDPLYGKLFSTYLRDPHTSRGTSQ | 3.16
HDPLYGKLFSTYLREPHTSRGTSQ | 2.13
HDPLYGKLFSTYLRFPHTSRGTSQ | 2.08
HDPLYGKLFSTYLRGPHTSRGTSQ | 3.2
HDPLYGKLFSTYLRHPHTSRGTSQ | 2.47
HDPLYGKLFSTYLRIPHTSRGTSQ | 2.32
HDPLYGKLFSTYLRKPHTSRGTSQ | 2.6
HDPLYGKLFSTYLRLPHTSRGTSQ | 2.27
HDPLYGKLFSTYLRMPHTSRGTSQ | 2.51
HDPLYGKLFSTYLRNPHTSRGTSQ | 2.36
HDPLYGKLFSTYLRQPHTSRGTSQ | 2.47
HDPLYGKLFSTYLRRPHTSRGTSQ | 2.85
HDPLYGKLFSTYLRSPHTSRGTSQ | 2.48
HDPLYGKLFSTYLRTPHTSRGTSQ | 1.88
HDPLYGKLFSTYLRVPHTSRGTSQ | 2.42

Variant | protein stability index
HDPLYGKLFSTYLRWPHTSRGTSQ | 2.37
HDPLYGKLFSTYLRYPHTSRGTSQ | 2.52
HDPLYGKLFSTYLRPAHTSRGTSQ | 2.2
HDPLYGKLFSTYLRPCHTSRGTSQ | 2.26
HDPLYGKLFSTYLRPDHTSRGTSQ | 3.37
HDPLYGKLFSTYLRPEHTSRGTSQ | 3.19
HDPLYGKLFSTYLRPFHTSRGTSQ | 1.77
HDPLYGKLFSTYLRPGHTSRGTSQ | 3.01
HDPLYGKLFSTYLRPHHTSRGTSQ | 2.52
HDPLYGKLFSTYLRPIHTSRGTSQ | 2.41
HDPLYGKLFSTYLRPKHTSRGTSQ | 3.01
HDPLYGKLFSTYLRPLHTSRGTSQ | 2.68
HDPLYGKLFSTYLRPMHTSRGTSQ | 3.13
HDPLYGKLFSTYLRPNHTSRGTSQ | 2.94
HDPLYGKLFSTYLRPQHTSRGTSQ | 3.27
HDPLYGKLFSTYLRPRHTSRGTSQ | 2.77
HDPLYGKLFSTYLRPSHTSRGTSQ | 2.67
HDPLYGKLFSTYLRPTHTSRGTSQ | 2.76
HDPLYGKLFSTYLRPVHTSRGTSQ | 2.46
HDPLYGKLFSTYLRPWHTSRGTSQ | 2.42
HDPLYGKLFSTYLRPYHTSRGTSQ | 2.22
HDPLYGKLFSTYLRPPATSRGTSQ | 2.79
HDPLYGKLFSTYLRPPCTSRGTSQ | 2.7
HDPLYGKLFSTYLRPPDTSRGTSQ | 2.82

Variant | protein stability index
HDPLYGKLFSTYLRPPETSRGTSQ | 3.22
HDPLYGKLFSTYLRPPFTSRGTSQ | 2.9
HDPLYGKLFSTYLRPPGTSRGTSQ | 2.25
HDPLYGKLFSTYLRPPITSRGTSQ | 2.43
HDPLYGKLFSTYLRPPKTSRGTSQ | 2.38
HDPLYGKLFSTYLRPPLTSRGTSQ | 2.66
HDPLYGKLFSTYLRPPMTSRGTSQ | 2.43
HDPLYGKLFSTYLRPPNTSRGTSQ | 2.59
HDPLYGKLFSTYLRPPPTSRGTSQ | 2.99
HDPLYGKLFSTYLRPPQTSRGTSQ | 2.61
HDPLYGKLFSTYLRPPRTSRGTSQ | 2.3
HDPLYGKLFSTYLRPPSTSRGTSQ | 2.31
HDPLYGKLFSTYLRPPTTSRGTSQ | 2.82
HDPLYGKLFSTYLRPPVTSRGTSQ | 2.53
HDPLYGKLFSTYLRPPWTSRGTSQ | 2.19
HDPLYGKLFSTYLRPPYTSRGTSQ | 2.53
HDPLYGKLFSTYLRPPHASRGTSQ | 2.52
HDPLYGKLFSTYLRPPHCSRGTSQ | 2.66
HDPLYGKLFSTYLRPPHDSRGTSQ | 2.83
HDPLYGKLFSTYLRPPHESRGTSQ | 2.6
HDPLYGKLFSTYLRPPHFSRGTSQ | 2.24
HDPLYGKLFSTYLRPPHGSRGTSQ | 2.41
HDPLYGKLFSTYLRPPHHSRGTSQ | 2.61
HDPLYGKLFSTYLRPPHISRGTSQ | 2.52

Variant | protein stability index
HDPLYGKLFSTYLRPPHKSRGTSQ | 2.65
HDPLYGKLFSTYLRPPHLSRGTSQ | 2.42
HDPLYGKLFSTYLRPPHMSRGTSQ | 2.57
HDPLYGKLFSTYLRPPHNSRGTSQ | 3.05
HDPLYGKLFSTYLRPPHPSRGTSQ | 2.45
HDPLYGKLFSTYLRPPHQSRGTSQ | 2.61
HDPLYGKLFSTYLRPPHRSRGTSQ | 2.57
HDPLYGKLFSTYLRPPHSSRGTSQ | 2.3
HDPLYGKLFSTYLRPPHVSRGTSQ | 2.68
HDPLYGKLFSTYLRPPHWSRGTSQ | 2.12
HDPLYGKLFSTYLRPPHYSRGTSQ | 2.29
HDPLYGKLFSTYLRPPHTARGTSQ | 2.72
HDPLYGKLFSTYLRPPHTCRGTSQ | 2.91
HDPLYGKLFSTYLRPPHTDRGTSQ | 3.1
HDPLYGKLFSTYLRPPHTERGTSQ | 2.44
HDPLYGKLFSTYLRPPHTFRGTSQ | 2.07
HDPLYGKLFSTYLRPPHTGRGTSQ | 2.8
HDPLYGKLFSTYLRPPHTHRGTSQ | 2.29
HDPLYGKLFSTYLRPPHTIRGTSQ | 2.79
HDPLYGKLFSTYLRPPHTKRGTSQ | 2.62
HDPLYGKLFSTYLRPPHTLRGTSQ | 2.36
HDPLYGKLFSTYLRPPHTMRGTSQ | 2.35
HDPLYGKLFSTYLRPPHTNRGTSQ | 3.12
HDPLYGKLFSTYLRPPHTPRGTSQ | 2.7

Variant | protein stability index
HDPLYGKLFSTYLRPPHTQRGTSQ | 2.51
HDPLYGKLFSTYLRPPHTRRGTSQ | 2.74
HDPLYGKLFSTYLRPPHTTRGTSQ | 2.61
HDPLYGKLFSTYLRPPHTVRGTSQ | 2.55
HDPLYGKLFSTYLRPPHTWRGTSQ | 1.95
HDPLYGKLFSTYLRPPHTYRGTSQ | 2.38
HDPLYGKLFSTYLRPPHTSAGTSQ | 2.78
HDPLYGKLFSTYLRPPHTSCGTSQ | 2.36
HDPLYGKLFSTYLRPPHTSDGTSQ | 2.67
HDPLYGKLFSTYLRPPHTSEGTSQ | 3.53
HDPLYGKLFSTYLRPPHTSFGTSQ | 2.17
HDPLYGKLFSTYLRPPHTSGGTSQ | 2.83
HDPLYGKLFSTYLRPPHTSHGTSQ | 2.86
HDPLYGKLFSTYLRPPHTSIGTSQ | 2.43
HDPLYGKLFSTYLRPPHTSKGTSQ | 2.8
HDPLYGKLFSTYLRPPHTSLGTSQ | 2.19
HDPLYGKLFSTYLRPPHTSMGTSQ | 2.08
HDPLYGKLFSTYLRPPHTSNGTSQ | 2.56
HDPLYGKLFSTYLRPPHTSPGTSQ | 2.66
HDPLYGKLFSTYLRPPHTSQGTSQ | 2.85
HDPLYGKLFSTYLRPPHTSSGTSQ | 2.58
HDPLYGKLFSTYLRPPHTSTGTSQ | 2.67
HDPLYGKLFSTYLRPPHTSVGTSQ | 2.29
HDPLYGKLFSTYLRPPHTSWGTSQ | 2.2

Variant | protein stability index
HDPLYGKLFSTYLRPPHTSYGTSQ | 2.3
HDPLYGKLFSTYLRPPHTSRATSQ | 2.95
HDPLYGKLFSTYLRPPHTSRCTSQ | 2.51
HDPLYGKLFSTYLRPPHTSRDTSQ | 3.4
HDPLYGKLFSTYLRPPHTSRETSQ | 2.69
HDPLYGKLFSTYLRPPHTSRFTSQ | 2.46
HDPLYGKLFSTYLRPPHTSRHTSQ | 2.11
HDPLYGKLFSTYLRPPHTSRITSQ | 2.41
HDPLYGKLFSTYLRPPHTSRKTSQ | 2.55
HDPLYGKLFSTYLRPPHTSRLTSQ | 2.48
HDPLYGKLFSTYLRPPHTSRMTSQ | 2.67
HDPLYGKLFSTYLRPPHTSRNTSQ | 2.42
HDPLYGKLFSTYLRPPHTSRPTSQ | 2.56
HDPLYGKLFSTYLRPPHTSRQTSQ | 2.95
HDPLYGKLFSTYLRPPHTSRRTSQ | 2.42
HDPLYGKLFSTYLRPPHTSRSTSQ | 2.67
HDPLYGKLFSTYLRPPHTSRTTSQ | 2.49
HDPLYGKLFSTYLRPPHTSRVTSQ | 2.82
HDPLYGKLFSTYLRPPHTSRWTSQ | 2
HDPLYGKLFSTYLRPPHTSRYTSQ | 1.87
HDPLYGKLFSTYLRPPHTSRGASQ | 2.66
HDPLYGKLFSTYLRPPHTSRGCSQ | 2.43
HDPLYGKLFSTYLRPPHTSRGDSQ | 2.6
HDPLYGKLFSTYLRPPHTSRGESQ | 3.04

Variant | protein stability index
HDPLYGKLFSTYLRPPHTSRGFSQ | 2.42
HDPLYGKLFSTYLRPPHTSRGGSQ | 2.75
HDPLYGKLFSTYLRPPHTSRGHSQ | 2.81
HDPLYGKLFSTYLRPPHTSRGISQ | 2.22
HDPLYGKLFSTYLRPPHTSRGKSQ | 2.61
HDPLYGKLFSTYLRPPHTSRGLSQ | 2.81
HDPLYGKLFSTYLRPPHTSRGMSQ | 2.72
HDPLYGKLFSTYLRPPHTSRGNSQ | 2.8
HDPLYGKLFSTYLRPPHTSRGPSQ | 2.59
HDPLYGKLFSTYLRPPHTSRGQSQ | 2.32
HDPLYGKLFSTYLRPPHTSRGRSQ | 2.48
HDPLYGKLFSTYLRPPHTSRGSSQ | 2.74
HDPLYGKLFSTYLRPPHTSRGVSQ | 2.12
HDPLYGKLFSTYLRPPHTSRGWSQ | 1.98
HDPLYGKLFSTYLRPPHTSRGYSQ | 2.13
HDPLYGKLFSTYLRPPHTSRGTAQ | 3
HDPLYGKLFSTYLRPPHTSRGTCQ | 2.61
HDPLYGKLFSTYLRPPHTSRGTDQ | 3.17
HDPLYGKLFSTYLRPPHTSRGTEQ | 2.64
HDPLYGKLFSTYLRPPHTSRGTFQ | 2.09
